From patent US20170355757A1 (Regeneron, published 2017)

T1: monkey C5-mmh (monkey, UniProt P01031 19-1676 (human entry), limits assumed)
T1 construct: Recombinant monkey C5 with a C-terminal myc-myc-hexahistidine tag
T1 chain: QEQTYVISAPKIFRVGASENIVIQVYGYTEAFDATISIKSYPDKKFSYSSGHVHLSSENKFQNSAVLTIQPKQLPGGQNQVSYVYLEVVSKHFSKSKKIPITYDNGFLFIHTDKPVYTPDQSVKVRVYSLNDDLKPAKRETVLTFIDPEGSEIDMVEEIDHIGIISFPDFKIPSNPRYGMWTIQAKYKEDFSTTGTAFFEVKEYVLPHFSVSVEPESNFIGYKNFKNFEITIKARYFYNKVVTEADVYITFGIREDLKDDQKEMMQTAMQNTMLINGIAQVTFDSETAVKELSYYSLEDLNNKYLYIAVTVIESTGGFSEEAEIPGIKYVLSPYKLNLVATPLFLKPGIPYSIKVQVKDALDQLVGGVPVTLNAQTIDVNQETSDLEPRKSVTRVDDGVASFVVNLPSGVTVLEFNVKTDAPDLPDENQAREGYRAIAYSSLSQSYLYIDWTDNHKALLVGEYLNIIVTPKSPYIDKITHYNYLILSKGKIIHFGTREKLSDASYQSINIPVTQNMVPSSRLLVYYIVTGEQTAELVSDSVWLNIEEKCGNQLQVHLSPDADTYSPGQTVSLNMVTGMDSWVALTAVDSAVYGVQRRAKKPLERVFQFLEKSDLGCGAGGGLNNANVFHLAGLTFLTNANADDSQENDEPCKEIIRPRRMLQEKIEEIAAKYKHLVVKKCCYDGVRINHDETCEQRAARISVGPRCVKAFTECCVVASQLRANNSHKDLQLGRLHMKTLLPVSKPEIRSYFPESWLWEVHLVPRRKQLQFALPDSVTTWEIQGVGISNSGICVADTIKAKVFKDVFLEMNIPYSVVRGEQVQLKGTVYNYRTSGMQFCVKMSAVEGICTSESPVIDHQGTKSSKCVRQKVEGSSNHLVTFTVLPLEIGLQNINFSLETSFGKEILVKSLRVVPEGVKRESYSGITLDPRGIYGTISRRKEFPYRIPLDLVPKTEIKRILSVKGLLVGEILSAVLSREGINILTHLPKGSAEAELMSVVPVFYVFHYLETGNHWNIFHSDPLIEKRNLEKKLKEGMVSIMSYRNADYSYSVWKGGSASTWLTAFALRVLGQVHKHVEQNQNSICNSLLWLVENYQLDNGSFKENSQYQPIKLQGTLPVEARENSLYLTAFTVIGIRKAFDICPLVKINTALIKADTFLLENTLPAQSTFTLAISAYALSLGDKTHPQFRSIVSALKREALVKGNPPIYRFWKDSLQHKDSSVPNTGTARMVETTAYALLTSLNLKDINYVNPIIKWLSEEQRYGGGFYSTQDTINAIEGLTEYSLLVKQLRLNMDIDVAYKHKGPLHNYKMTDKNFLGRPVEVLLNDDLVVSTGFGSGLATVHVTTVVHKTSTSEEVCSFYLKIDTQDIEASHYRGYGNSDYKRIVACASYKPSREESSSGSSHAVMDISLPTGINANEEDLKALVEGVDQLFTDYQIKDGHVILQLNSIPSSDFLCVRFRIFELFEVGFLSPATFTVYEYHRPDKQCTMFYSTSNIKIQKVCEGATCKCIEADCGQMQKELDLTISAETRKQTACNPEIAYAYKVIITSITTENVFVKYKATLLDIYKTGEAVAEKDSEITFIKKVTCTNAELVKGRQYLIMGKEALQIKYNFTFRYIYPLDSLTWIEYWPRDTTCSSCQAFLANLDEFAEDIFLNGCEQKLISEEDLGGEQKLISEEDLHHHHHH


How the values were obtained:
monkey C5-mmh = target: T1, monkey C5-mmh; assay: SPR, mAb captured via anti-hFc, 37C
Experimental: Equilibrium dissociation constants (KD values) for C5 binding to purified anti-C5 antibodies were determined using a real-time surface plasmon resonance biosensor assay on a Biacore T200 instrument. The Biacore sensor surface was derivatized by amine coupling with a monoclonal mouse anti-human Fc antibody (GE Healthcare, # BR-1008-39) to capture anti-C5 antibodies expressed with human Fc constant regions. Biacore binding studies were conducted in HBST running buffer (0.01M HEPES pH 7.4, 0.15M NaCl, 3 mM EDTA, 0.05% v/v Surfactant P20).
Human C5 was obtained from a commercial source (EMD). Other C5 reagents were expressed with a C-terminal myc-myc-hexahistidine tag (subsequently referred to as C5-mmh). […] Association of all the C5 reagents to each of the captured monoclonal antibodies was monitored for 3 minutes and their dissociation in HBST running buffer was monitored for 8 minutes. All the binding kinetics experiments were performed at either 25° C. or 37° C. Kinetic association (kₐ) and dissociation (kd) rate constants were determined by fitting the real-time sensorgrams to a 1:1 binding model using Scrubber 2.0c curve fitting software. Binding dissociation equilibrium constants (KD) and dissociative half-lives (t %) were calculated from the kinetic rate constants as: KD (M)=kd/kₐ and t_{1/2} (min)=In2/(60×kd)

human C5 = target: T2, human C5 (human, UniProt P01031 19-1676); assay: SPR, mAb captured via anti-hFc, dissociation at pH7.4 vs pH6.0, 25C
T2 construct: Bought human C5 (EMD #204888, said elsewhere to be purified from plasma); also called hC5; complement component 5
Experimental: Effect of pH on the rate of dissociation of recombinant human C5 bound to purified anti-C5 monoclonal antibodies was determined using a real-time surface plasmon resonance biosensor using a Biacore T200 instrument. The Biacore sensor surface was first derivatized by amine coupling with a monoclonal mouse anti-human Fc antibody (GE, # BR-1008-39) to capture anti-C5 monoclonal antibodies expressed with human IgG4 Fc. All Biacore binding studies were performed using two running buffers PBS-T, pH7.4 (0.01M Na₂HPO₄/NaH₂PO₄, 0.15M NaCl, 0.05% v/v Tween-20, adjusted to pH7.4) and PBS-T, pH6.0 (0.01M Na₂HPO₄/NaH₂PO₄, 0.15M NaCl, 0.05% v/v Tween-20, adjusted to pH6.0). […] Binding dissociative half-lives (t %) were calculated from kd as: […]

Row | Binder | 100 nM monkey C5-mmh Bound (RU) (monkey C5-mmh) | Kd (monkey C5-mmh) | koff (monkey C5-mmh) | kon (monkey C5-mmh) | t1/2 (monkey C5-mmh) | t1/2 Ratio pH7.4/pH6.0 (human C5)
1 | H4H12166P5 (antibody, human IgG4, V domains shown, Histidine-mutated CDR variant of H4H12166P; human IgG4 Fc with S108P) VH: QVQLQESGPGLVKPSETLSLTCTVSGDSVSSSYWTWIRQPPGKGLEWIGYIYYSGSSNYNPSLKSRATISVDTSKNQFSLKLSSVTAADTAVYYCAREGNVDTTMIHDYWGQGTLVTVSS VL: AIQMTQSPSSLSASVGDRVTITCRASQGIRNDLGWYQQKPGKAPKLLIYAASSLQSGVPSRFAGRGSGTDFTLTISSLQPEDFATYYCLQDFNYPWTFGQGTKVEIK | 70 RU | 20.9 nM | 0.00313 s⁻¹ | 150000 M⁻¹ s⁻¹ | 4 min | 8.3
2 | H4H12166P8 (antibody, human IgG4, V domains shown, Histidine-mutated CDR variant of H4H12166P; human IgG4 Fc with S108P) VH: QVQLQESGPGLVKPSETLSLTCTVSGDSVSSSYWTWIRQPPGKGLEWIGYIYYSGSSNYNPSLKSRATISVDTSKNQFSLKLSSVTAADTAVYYCAREGNVDHTMIFDYWGQGTLVTVSS VL: AIQMTQSPSSLSASVGDRVTITCRASQGIRNDLGWYQQKPGKAPKLLIYAASSLQSGVPSRFAGRGSGTDFTLTISSLQPEDFATYYCHQDFNYPWTFGQGTKVEIK | 53 RU | 13.3 nM | 0.00269 s⁻¹ | 203000 M⁻¹ s⁻¹ | 4 min | 47
3 | H4H12166P10 (antibody, human IgG4, V domains shown, Histidine-mutated CDR variant of H4H12166P; human IgG4 Fc with S108P) VH: QVQLQESGPGLVKPSETLSLTCTVSGDSVSSSYWTWIRQPPGKGLEWIGYIYYSGSSNYNPSLKSRATISVDTSKNQFSLKLSSVTAADTAVYYCAREGNVDTTMIHDYWGQGTLVTVSS VL: AIQMTQSPSSLSASVGDRVTITCRASQGIRNDLGWYQQKPGKAPKLLIYAASSLQSGVPSRFAGRGSGTDFTLTISSLQPEDFATYYCLQDFNYPWHFGQGTKVEIK | 24 RU | 42.2 nM | 0.00279 s⁻¹ | 66000 M⁻¹ s⁻¹ | 4 min | 33
4 | H4H12166P9 (antibody, human IgG4, V domains shown, Histidine-mutated CDR variant of H4H12166P; human IgG4 Fc with S108P) VH: QVQLQESGPGLVKPSETLSLTCTVSGDSVSSSYWTWIRQPPGKGLEWIGYIYYSGSSNYNPSLKSRATISVDTSKNQFSLKLSSVTAADTAVYYCAREGNVDHTMIFDYWGQGTLVTVSS VL: AIQMTQSPSSLSASVGDRVTITCRASQGIRNDLGWYQQKPGKAPKLLIYAASSLQSGVPSRFAGRGSGTDFTLTISSLQPEDFATYYCLQDFNYPWHFGQGTKVEIK | 69 RU | 14.4 nM | 0.00261 s⁻¹ | 181000 M⁻¹ s⁻¹ | 4 min | 31
5 | H4H12166P7 (antibody, human IgG4, V domains shown, Histidine-mutated CDR variant of H4H12166P; human IgG4 Fc with S108P) VH: QVQLQESGPGLVKPSETLSLTCTVSGDSVSSSYWTWIRQPPGKGLEWIGYIYYSGSSNYNPSLKSRATISVDTSKNQFSLKLSSVTAADTAVYYCAREHNVDTTMIFDYWGQGTLVTVSS VL: AIQMTQSPSSLSASVGDRVTITCRASQGIRNDLGWYQQKPGKAPKLLIYAASSLQSGVPSRFAGRGSGTDFTLTISSLQPEDFATYYCLQDFNYPWHFGQGTKVEIK | 48 RU | 19.3 nM | 0.00241 s⁻¹ | 125000 M⁻¹ s⁻¹ | 5 min | 35

Stronger by Kd (monkey C5-mmh), values ahead:

Row | 100 nM monkey C5-mmh Bound (RU) (monkey C5-mmh) | Kd (monkey C5-mmh) | koff (monkey C5-mmh) | kon (monkey C5-mmh) | t1/2 (monkey C5-mmh) | t1/2 Ratio pH7.4/pH6.0 (human C5) | Binder
6 | 112 RU | 9.18 nM | 0.00232 s⁻¹ | 253000 M⁻¹ s⁻¹ | 5 min | 7.8 | H4H12166P6 (antibody, human IgG4, V domains shown, Histidine-mutated CDR variant of H4H12166P; human IgG4 Fc with S108P) VH: QVQLQESGPGLVKPSETLSLTCTVSGDSVSSSYWTWIRQPPGKGLEWIGYIYYSGSSNYNPSLKSRATISVDTSKNQFSLKLSSVTAADTAVYYCAREGNVDHTMIFDYWGQGTLVTVSS VL: AIQMTQSPSSLSASVGDRVTITCRASQGIRNDLGWYQQKPGKAPKLLIYAASSLQSGVPSRFAGRGSGTDFTLTISSLQPEDFATYYCLQDFNYPWTFGQGTKVEIK
7 | 80 RU | 8.2 nM | 0.00183 s⁻¹ | 223000 M⁻¹ s⁻¹ | 6 min | 7.8 | H4H12166P4 (antibody, human IgG4, V domains shown, Histidine-mutated CDR variant of H4H12166P; human IgG4 Fc with S108P) VH: QVQLQESGPGLVKPSETLSLTCTVSGDSVSSSYWTWIRQPPGKGLEWIGYIYYSGSSNYNPSLKSRATISVDTSKNQFSLKLSSVTAADTAVYYCAREGNVDTTMIFDYWGQGTLVTVSS VL: AIQMTQSPSSLSASVGDRVTITCRASQGIRNDLGWYQQKPGKAPKLLIYAASSLQSGVPSRFAGRGSGTDFTLTISSLQPEDFATYYCLQDFNYPWHFGQGTKVEIK
8 | 83 RU | 7.56 nM | 0.00297 s⁻¹ | 393000 M⁻¹ s⁻¹ | 4 min | 9.3 | H4H12166P2 (antibody, human IgG4, V domains shown, Histidine-mutated CDR variant of H4H12166P; human IgG4 Fc with S108P) VH: QVQLQESGPGLVKPSETLSLTCTVSGDSVSSSYWTWIRQPPGKGLEWIGYIYYSGSSNYNPSLKSRATISVDTSKNQFSLKLSSVTAADTAVYYCAREGNVDTTMIFDYWGQGTLVTVSS VL: AIQMTQSPSSLSASVGDRVTITCRASQGIRNDLGWYQQKPGKAPKLLIYAASSLQSGVPSRFAGRGSGTDFTLTISSLQPEDFATYYCHQDFNYPWTFGQGTKVEIK
